Laboratory results from paper PMC6502868, “Architecture of Saccharomyces cerevisiae SAGA complex” (Cell Discovery, 2019).

T1: Spt7 (S. cerevisiae, UniProt P35177 1-1332)
T1 construct: Spt7, S. cerevisiae, second largest SAGA subunit (SPT module); source: endogenous, in the native SAGA complex purified from fermented S. cerevisiae cells
T1 sequence (looked up): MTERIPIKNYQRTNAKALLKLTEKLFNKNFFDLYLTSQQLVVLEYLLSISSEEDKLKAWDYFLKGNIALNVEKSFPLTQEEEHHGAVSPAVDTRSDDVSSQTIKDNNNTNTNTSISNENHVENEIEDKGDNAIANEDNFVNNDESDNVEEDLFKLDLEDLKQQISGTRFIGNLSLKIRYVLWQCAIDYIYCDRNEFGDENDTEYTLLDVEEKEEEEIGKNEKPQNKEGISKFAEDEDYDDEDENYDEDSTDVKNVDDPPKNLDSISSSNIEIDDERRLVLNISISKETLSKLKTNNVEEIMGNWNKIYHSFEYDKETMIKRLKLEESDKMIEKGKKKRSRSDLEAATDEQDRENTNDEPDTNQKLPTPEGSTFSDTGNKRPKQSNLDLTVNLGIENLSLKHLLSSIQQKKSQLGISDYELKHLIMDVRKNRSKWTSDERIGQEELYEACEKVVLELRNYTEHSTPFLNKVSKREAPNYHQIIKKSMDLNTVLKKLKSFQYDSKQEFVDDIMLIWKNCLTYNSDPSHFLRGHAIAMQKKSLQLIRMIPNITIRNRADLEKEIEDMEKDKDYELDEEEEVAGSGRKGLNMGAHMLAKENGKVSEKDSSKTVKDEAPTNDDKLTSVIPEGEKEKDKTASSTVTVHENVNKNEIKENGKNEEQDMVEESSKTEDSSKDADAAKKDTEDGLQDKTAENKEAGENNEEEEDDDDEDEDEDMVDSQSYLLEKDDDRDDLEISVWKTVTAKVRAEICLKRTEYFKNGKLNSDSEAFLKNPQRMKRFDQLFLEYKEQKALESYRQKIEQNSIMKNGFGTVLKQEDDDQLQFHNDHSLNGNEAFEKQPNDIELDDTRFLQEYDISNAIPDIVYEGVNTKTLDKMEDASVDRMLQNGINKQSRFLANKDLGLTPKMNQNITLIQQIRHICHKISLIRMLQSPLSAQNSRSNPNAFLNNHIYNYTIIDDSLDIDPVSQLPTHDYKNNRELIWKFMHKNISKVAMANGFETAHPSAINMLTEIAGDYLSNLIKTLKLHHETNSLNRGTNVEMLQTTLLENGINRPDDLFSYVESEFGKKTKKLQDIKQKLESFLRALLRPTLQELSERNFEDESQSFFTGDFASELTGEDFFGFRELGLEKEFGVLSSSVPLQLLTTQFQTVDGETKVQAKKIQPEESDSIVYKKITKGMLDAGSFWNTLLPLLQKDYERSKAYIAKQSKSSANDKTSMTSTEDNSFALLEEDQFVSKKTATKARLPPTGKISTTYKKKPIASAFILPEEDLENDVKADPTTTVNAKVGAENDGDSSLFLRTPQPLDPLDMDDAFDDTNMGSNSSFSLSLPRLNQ


Experiments:
[1] = target: T2, Tra1 (S. cerevisiae, UniProt P38811 1-3744); test: cross-linking; chemical cross-linking of proteins coupled with mass spectrometry (CXMS) on the purified native SAGA complex; 139 unique inter- and 184 unique intra-subunit cross-linking pairs; settings: both partners purified
T2 construct: Tra1, S. cerevisiae, largest SAGA subunit (SPT module), 3744 residues as printed; Endogenous subunit; Purification methods and any tag are in the Supplementary Materials; also called Tra1_(SAGA); lobe A; source: endogenous, in the native SAGA complex purified from fermented S. cerevisiae cells

[2] = target: T1, Spt7; test: as above; settings: both partners purified

T2 sequence (P38811 whole entry): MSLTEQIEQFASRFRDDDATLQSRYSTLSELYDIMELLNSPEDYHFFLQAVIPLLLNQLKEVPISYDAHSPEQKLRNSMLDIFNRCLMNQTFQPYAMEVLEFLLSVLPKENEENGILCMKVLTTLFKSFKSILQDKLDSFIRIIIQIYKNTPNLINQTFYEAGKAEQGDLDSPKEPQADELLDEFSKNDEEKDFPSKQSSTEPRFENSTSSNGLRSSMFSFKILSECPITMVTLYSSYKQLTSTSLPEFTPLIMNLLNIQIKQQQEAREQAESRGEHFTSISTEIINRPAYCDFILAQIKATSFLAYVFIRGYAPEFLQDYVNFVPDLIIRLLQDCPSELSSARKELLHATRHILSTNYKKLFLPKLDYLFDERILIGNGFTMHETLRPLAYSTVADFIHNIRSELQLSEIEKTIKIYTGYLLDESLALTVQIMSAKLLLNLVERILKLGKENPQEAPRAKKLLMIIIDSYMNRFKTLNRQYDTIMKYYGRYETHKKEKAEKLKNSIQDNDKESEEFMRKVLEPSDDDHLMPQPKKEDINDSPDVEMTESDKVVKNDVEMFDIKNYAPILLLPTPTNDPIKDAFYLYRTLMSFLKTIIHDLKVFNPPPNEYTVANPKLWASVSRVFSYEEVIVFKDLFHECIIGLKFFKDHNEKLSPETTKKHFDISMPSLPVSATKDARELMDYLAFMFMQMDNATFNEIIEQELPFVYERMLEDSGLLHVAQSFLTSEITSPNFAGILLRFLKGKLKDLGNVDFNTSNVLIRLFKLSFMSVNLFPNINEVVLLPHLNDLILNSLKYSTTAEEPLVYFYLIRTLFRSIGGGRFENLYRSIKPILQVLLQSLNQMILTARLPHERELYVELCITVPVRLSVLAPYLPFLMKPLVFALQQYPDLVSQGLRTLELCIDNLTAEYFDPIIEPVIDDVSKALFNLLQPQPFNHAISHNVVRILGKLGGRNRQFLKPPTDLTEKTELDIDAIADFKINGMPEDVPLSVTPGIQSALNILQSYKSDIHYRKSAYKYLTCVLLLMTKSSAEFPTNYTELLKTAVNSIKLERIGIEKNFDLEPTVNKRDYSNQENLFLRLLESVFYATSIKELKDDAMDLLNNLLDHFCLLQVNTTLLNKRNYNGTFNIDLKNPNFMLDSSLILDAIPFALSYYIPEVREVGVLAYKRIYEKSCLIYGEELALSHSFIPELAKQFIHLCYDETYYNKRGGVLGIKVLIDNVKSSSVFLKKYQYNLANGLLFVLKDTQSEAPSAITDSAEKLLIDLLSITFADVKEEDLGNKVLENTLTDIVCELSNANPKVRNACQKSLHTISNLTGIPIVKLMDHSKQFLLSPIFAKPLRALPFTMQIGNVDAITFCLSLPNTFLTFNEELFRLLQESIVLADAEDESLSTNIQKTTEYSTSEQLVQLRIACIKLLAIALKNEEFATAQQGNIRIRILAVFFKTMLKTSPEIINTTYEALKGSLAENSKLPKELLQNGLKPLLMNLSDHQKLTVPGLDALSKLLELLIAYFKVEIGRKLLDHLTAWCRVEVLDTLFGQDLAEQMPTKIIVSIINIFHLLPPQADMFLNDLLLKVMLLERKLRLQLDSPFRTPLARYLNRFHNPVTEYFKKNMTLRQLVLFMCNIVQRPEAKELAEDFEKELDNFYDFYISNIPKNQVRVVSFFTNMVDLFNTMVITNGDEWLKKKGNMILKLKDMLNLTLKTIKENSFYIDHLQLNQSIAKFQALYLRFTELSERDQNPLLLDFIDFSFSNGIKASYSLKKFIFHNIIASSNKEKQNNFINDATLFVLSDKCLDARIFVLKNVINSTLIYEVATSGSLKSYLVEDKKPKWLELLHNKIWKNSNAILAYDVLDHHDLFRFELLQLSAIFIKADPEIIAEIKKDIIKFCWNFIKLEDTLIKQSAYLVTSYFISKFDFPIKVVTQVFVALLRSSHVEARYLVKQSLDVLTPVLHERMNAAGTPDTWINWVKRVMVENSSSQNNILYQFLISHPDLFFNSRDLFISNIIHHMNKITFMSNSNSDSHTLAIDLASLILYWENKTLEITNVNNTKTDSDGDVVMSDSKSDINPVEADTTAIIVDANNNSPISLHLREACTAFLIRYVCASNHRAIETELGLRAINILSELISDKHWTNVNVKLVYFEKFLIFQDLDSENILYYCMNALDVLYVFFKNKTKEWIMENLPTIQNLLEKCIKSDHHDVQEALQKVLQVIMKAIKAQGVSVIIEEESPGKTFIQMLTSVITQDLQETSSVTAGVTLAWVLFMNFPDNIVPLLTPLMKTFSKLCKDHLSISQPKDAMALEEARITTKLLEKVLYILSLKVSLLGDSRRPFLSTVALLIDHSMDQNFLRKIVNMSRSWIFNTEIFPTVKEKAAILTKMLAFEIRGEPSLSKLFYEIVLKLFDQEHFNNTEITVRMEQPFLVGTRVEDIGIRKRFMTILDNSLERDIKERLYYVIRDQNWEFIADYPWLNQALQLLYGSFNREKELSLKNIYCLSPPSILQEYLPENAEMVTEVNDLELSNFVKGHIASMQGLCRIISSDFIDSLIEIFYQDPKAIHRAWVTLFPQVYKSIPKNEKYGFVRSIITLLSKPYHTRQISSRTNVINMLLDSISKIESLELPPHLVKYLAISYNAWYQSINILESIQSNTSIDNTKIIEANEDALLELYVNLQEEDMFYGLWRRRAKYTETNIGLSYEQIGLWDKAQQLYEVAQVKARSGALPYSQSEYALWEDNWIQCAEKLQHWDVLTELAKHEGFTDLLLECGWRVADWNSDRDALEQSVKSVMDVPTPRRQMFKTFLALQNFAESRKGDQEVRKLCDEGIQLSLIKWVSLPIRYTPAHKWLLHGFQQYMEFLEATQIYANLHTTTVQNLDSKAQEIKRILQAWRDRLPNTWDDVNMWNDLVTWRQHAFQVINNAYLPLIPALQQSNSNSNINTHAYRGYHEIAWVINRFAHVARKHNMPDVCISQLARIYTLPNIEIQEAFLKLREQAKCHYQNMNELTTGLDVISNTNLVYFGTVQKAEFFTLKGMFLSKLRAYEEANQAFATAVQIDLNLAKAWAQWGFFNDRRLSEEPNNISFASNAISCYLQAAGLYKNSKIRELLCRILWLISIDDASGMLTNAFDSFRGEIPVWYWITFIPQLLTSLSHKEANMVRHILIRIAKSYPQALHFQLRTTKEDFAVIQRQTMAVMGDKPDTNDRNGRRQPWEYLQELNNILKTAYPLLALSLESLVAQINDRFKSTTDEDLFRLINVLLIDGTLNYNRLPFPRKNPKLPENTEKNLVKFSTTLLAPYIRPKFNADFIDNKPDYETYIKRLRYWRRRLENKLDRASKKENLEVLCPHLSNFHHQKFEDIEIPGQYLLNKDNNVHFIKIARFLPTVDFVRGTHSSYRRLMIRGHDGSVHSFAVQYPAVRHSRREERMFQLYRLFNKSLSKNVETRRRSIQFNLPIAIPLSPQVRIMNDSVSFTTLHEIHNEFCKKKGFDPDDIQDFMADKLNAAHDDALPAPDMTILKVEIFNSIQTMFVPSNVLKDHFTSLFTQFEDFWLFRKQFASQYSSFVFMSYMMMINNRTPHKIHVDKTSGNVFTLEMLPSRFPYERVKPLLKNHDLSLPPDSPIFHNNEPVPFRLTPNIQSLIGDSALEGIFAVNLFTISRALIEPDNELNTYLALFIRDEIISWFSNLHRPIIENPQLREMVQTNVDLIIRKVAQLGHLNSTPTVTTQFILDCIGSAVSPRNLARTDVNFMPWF

Row | binding result [1] | binding result [2] | Binder
1 | binds | binds | Taf12 (natural protein, S. cerevisiae, UniProt Q03761 1-539, looked up, Taf12, S. cerevisiae, SAGA subunit (TAF module); source: endogenous, in the native SAGA complex purified from fermented S. cerevisiae cells) MSSNPENSGVNANNNTGTGNADAITGAQQNMVLQPRQLQEMAAKFRTLLTEARNVGETTPRGKELMFQAAKIKQVYDALTLNRRRQQAAQAYNNTSNSNSSNPASIPTENVPNSSQQQQQQQQQTRNNSNKFSNMIKQVLTPEENQEYEKLWQNFQVRHTSIKEKETYLKQNIDRLEQEINKQTDEGPKQQLQEKKIELLNDWKVLKIEYTKLFNNYQNSKKTFYVECARHNPALHKFLQESTQQQRVQQQRVQQQQQQQQQQQQQQQQQQQQQQQRQGQNQRKISSSNSTEIPSVTGPDALKSQQQQQNTITATNNPRGNVNTSQTEQSKAKVTNVNATASMLNNISSSKSAIFKQTEPAIPISENISTKTPAPVAYRSNRPTITGGSAMNASALNTPATTKLPPYEMDTQRVMSKRKLRELVKTVGIDEGDGETVIDGDVEELLLDLADDFVTNVTAFSCRLAKHRKSDNLEARDIQLHLERNWNIRIPGYSADEIRSTRKWNPSQNYNQKLQSITSDKVAAAKNNGNNVASLNTKK
2 | binds | binds | Spt3 (natural protein, S. cerevisiae, UniProt P06844 1-337, looked up, Spt3, S. cerevisiae, SAGA subunit (SPT module); source: endogenous, in the native SAGA complex purified from fermented S. cerevisiae cells) MMDKHKYRVEIQQMMFVSGEINDPPVETTSLIEDIVRGQVIEILLQSNKTAHLRGSRSILPEDVIFLIRHDKAKVNRLRTYLSWKDLRKNAKDQDASAGVASGTGNPGAGGEDDLKKAGGGEKDEKDGGNMMKVKKSQIKLPWELQFMFNEHPLENNDDNDDMDEDEREANIVTLKRLKMADDRTRNMTKEEYVHWSDCRQASFTFRKNKRFKDWSGISQLTEGKPHDDVIDILGFLTFEIVCSLTETALKIKQREQVLQTQKDKSQQSSQDNTNFEFASSTLHRKKRLFDGPENVINPLKPRHIEEAWRVLQTIDMRHRALTNFKGGRLSSKPIIM
